From patent publication US20010055591A1

How the values were obtained:
[1] = molecular target: thrombin (free thrombin) (human) (UniProt P00734); assay: discontinuous thrombin inhibition assay, chromogenic substrate; with 5 µg/ml heparin
[2] = molecular target: thrombin (free thrombin) (human) (UniProt P00734); assay: discontinuous thrombin inhibition assay, chromogenic substrate; no TM
trypsin = assay: discontinuous trypsin inhibition assay, chromogenic substrate SpTH
Factor Xa (human) = Factor Xa (human) (UniProt P00742); assay: discontinuous Factor Xa inhibition assay, chromogenic substrate SpFXa
Chain of Factor Xa (human) (P00742 41-179 limits assumed, form in doubt, chain 1 of 2): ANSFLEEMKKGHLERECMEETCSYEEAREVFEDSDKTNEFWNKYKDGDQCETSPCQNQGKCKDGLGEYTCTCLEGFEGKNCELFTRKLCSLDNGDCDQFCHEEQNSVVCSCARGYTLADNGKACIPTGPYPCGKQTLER
Chain of Factor Xa (human) (P00742 235-488 limits assumed, form in doubt, chain 2 of 2): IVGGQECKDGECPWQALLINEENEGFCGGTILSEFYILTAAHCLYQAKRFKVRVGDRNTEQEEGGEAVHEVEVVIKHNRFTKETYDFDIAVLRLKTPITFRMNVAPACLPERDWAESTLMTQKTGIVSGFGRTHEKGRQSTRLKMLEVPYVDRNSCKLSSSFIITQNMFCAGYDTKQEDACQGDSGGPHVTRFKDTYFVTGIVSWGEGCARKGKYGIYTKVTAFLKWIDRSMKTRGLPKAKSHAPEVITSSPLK

AT-neut (antithrombin H-helix mutant Asp309 to Asn, Glu310, 312, 313 to Gln) (from UniProt P01008 33-464)
second-order rate constant (κ2) of inhibition [1]: 1.4e+06 M⁻¹ s⁻¹ | second-order rate constant (κ2) of inhibition [2]: 4100 M⁻¹ s⁻¹ | second-order rate constant (κ2) of inhibition (trypsin): 17000 M⁻¹ s⁻¹ | second-order rate constant (κ2) of inhibition (Factor Xa (human)): 990 M⁻¹ s⁻¹
